The target of assay [1] is mouse CD206 on peritoneal cells from 4T1 tumor-bearing mice (mouse) (UniProt Q61830). Briefly: flow cytometry on peritoneal cells of 4T1 tumor mice; 10 µg/mL antibody, then FAM-UNO at 0.5 µg/mL.
The next assay addresses recombinant mouse CD163 (mouse, UniProt Q2VLH6 39-1045, limits assumed). In words: fluorescence anisotropy, in solution, kinetic mode.
The target in assay [2] is T1, recombinant mouse macrophage mannose receptor rmMMR/CD206 (mouse, UniProt Q61830 20-1388, limits assumed).
T1 construct: Bought recombinant protein; also called mouse recombinant CD206; MRC1
T1 sequence (looked up): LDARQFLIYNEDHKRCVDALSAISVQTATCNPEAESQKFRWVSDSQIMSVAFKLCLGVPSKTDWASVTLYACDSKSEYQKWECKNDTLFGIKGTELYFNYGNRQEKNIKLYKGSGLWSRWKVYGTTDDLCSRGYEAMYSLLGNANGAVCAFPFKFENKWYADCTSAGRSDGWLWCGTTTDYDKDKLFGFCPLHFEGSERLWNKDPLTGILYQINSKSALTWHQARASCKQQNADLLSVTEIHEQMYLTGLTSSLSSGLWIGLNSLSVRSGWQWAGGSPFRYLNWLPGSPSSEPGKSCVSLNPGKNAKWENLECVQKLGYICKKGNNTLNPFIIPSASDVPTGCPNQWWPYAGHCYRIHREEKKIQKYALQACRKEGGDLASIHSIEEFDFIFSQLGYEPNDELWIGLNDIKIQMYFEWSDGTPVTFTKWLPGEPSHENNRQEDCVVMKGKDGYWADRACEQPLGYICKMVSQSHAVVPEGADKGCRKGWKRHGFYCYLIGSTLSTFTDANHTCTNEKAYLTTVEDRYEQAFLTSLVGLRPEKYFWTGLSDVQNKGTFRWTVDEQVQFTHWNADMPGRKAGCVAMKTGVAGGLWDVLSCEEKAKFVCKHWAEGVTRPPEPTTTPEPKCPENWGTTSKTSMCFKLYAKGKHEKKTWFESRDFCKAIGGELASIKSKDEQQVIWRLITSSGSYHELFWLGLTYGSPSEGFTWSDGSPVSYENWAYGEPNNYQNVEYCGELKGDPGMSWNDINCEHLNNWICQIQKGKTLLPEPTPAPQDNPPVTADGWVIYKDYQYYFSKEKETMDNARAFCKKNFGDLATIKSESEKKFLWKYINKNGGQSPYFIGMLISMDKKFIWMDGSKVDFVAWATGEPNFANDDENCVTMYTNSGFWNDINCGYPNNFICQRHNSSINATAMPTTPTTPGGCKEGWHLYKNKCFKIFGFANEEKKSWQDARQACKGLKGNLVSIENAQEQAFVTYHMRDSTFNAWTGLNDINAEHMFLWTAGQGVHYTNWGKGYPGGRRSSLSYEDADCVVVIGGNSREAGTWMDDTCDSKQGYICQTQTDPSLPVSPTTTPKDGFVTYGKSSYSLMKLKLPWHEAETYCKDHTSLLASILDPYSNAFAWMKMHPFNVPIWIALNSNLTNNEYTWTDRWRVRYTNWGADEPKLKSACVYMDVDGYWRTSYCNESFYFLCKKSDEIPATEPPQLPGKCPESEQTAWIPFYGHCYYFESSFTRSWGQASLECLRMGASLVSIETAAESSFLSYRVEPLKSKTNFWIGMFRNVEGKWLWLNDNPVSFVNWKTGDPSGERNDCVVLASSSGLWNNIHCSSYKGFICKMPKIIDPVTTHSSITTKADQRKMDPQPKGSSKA
In words: fluorescence anisotropy, in solution, 50 nM peptide and 1 µM protein. How it is done: In all experiments, FA signal measurements were done under pseudo first-order conditions with 50 nM singly labelled FAM peptides and 1 μM proteins. […] Assays were carried out in kinetic mode in a total volume of 30 μl at 25° C. on the PHERAstar (BMG Labtech, Germany) microplate reader using an optical module with excitation and emission filters of 485 nm (slit 10 nm) and 520 nm (slit 10 nm), respectively. Dual emission detection mode allows simultaneous recording of intensities that are parallel (l) and perpendicular (1) to the plane of excitation light. Sensitivities of channels (G factor) were corrected with gain adjustment of the photomultiplier tubes (PMTs) using fluorescein as a standard. The background fluorescence (receptor and buffer components in the absence of fluorescent ligand) was subtracted independently from all intensity channels. FA signals at time t after initiation of binding reaction was calculated as parameters r(t) from the equation: […]

For assay [3], the target named is T2, recombinant human macrophage mannose receptor rhMMR/CD206 (human, UniProt P22897 19-1383, limits assumed).
T2 construct: Bought recombinant protein; also called human recombinant CD206; hCD206
T2 sequence (looked up): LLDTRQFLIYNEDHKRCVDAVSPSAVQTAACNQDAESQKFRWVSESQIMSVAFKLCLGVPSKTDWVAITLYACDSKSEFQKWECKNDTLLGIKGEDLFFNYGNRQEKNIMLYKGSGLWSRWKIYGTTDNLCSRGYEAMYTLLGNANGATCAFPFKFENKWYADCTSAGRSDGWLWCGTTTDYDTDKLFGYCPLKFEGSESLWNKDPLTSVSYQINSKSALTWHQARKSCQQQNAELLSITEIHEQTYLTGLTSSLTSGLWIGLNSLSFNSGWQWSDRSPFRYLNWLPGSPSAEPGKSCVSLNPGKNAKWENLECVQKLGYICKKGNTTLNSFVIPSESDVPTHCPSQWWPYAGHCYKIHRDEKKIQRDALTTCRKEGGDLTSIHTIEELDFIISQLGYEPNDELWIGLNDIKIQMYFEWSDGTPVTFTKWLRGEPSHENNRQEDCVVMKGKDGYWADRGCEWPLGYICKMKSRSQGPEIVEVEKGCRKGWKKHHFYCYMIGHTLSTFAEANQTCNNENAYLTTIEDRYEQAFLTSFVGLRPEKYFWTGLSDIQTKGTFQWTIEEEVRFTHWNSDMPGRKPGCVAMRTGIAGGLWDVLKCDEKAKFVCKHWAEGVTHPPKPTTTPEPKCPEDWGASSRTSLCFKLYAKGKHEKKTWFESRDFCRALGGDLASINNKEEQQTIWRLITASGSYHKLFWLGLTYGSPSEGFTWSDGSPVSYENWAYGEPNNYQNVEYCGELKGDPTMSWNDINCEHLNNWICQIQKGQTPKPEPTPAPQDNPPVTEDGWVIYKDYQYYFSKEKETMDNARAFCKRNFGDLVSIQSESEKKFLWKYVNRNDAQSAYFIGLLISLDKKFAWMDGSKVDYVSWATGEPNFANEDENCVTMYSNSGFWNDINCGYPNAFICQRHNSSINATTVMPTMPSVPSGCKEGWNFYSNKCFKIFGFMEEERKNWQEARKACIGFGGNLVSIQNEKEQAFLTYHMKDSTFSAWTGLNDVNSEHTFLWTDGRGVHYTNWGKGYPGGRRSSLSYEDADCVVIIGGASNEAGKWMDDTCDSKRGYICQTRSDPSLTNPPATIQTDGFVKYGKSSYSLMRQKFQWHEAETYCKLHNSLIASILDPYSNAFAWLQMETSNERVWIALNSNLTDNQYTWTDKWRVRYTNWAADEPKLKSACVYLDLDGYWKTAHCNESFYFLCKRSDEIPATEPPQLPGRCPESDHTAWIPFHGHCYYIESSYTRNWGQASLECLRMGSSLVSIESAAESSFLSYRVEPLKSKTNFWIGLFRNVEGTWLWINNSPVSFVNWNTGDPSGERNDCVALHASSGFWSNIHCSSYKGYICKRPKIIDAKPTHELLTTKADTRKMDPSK
In words: fluorescence anisotropy, in solution, kinetic mode.

Assay [4] concerns the target T3, mouse CD206 on peritoneal cells from 4T1 tumor-bearing mice (mouse, UniProt Q61830 20-1456).
T3 construct: whole, on cells; Primary cells that carry many other proteins; also called MRC1; mannose receptor
T3 sequence (looked up): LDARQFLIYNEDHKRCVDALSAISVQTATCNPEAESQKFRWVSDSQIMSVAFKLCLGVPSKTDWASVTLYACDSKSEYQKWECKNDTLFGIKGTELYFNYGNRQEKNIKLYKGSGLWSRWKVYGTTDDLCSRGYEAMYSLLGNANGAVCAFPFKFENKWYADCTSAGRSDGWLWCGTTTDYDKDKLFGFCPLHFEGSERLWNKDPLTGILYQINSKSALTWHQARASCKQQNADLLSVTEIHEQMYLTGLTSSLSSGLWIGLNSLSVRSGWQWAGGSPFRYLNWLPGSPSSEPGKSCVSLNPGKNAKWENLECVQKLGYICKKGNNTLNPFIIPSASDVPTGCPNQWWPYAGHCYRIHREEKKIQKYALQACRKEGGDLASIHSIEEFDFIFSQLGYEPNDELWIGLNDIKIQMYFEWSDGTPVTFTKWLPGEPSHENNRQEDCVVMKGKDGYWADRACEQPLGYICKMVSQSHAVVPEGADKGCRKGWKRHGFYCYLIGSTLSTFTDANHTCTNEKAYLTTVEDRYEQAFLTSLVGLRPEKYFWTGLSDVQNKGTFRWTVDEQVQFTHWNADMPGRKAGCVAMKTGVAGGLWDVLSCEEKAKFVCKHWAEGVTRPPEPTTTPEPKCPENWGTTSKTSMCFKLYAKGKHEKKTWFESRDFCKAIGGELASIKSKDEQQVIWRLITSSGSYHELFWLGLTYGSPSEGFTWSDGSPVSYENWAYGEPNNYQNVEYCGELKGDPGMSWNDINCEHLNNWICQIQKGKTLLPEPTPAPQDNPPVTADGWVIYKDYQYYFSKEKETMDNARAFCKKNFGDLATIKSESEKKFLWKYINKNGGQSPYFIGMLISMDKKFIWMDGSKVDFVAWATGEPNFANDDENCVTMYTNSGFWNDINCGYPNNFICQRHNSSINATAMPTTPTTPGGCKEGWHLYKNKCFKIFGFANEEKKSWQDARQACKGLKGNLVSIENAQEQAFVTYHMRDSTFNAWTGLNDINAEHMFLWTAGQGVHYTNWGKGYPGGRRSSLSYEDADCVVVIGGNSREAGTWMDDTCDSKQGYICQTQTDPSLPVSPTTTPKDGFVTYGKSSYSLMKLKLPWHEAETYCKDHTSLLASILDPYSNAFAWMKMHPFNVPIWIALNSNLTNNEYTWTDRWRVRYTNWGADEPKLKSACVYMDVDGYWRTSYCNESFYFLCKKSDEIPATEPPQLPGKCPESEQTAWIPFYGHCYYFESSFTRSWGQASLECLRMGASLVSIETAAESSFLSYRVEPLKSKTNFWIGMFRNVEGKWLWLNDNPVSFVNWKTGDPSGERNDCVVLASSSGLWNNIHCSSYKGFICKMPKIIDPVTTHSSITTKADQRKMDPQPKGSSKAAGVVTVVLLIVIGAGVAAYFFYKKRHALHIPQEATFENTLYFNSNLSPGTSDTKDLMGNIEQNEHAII
Briefly: flow cytometry on peritoneal cells, legend of FIG. 4D. How it is done: Mice were anesthetized and intraperitoneally injected with 5 mL of PBS+1% BSA, the abdomen was massaged to detach macrophages and the peritoneal fluid was collected. This procedure typically yielded 5-9×10⁶ cells. Cells were concentrated to 1 mL in the same peritoneal fluid. For FAM-peptide incubation, the peptides were incubated for 30 minutes at 4° C. For antibody incubation the cells were incubated with antibody for 1 h at 4° C. A647 Rat anti-CCR2 (Biolegend, CA, USA. Catalog number 150603) was incubated for 1 h at 4° C. at a dilution of 1/200. FAM-peptides were incubated at a concentration of 0.5 μg/mL, and Rat anti-CD206 (Bio-Rad, CA, USA. Product code MCA2235GA) was incubated at a concentration of 10 μg/mL. Binding of FAM-peptides was monitored with 488 nm channel and CCR2 labeling was assessed in the 647 nm channel using A647 Anti-CCR2 (Biolegend, CA, USA). After incubation of FAM-Peptides or antibodies, the cells were washed 3 times at 4° C. with PBS-Tby centrifugation at 250 g for 6 minutes, followed by flow cytometry analysis (Accuri, BD Biosciences, CA, USA).
The effect of a blocking anti-CD206 antibody on FAM-UNO binding to peritoneal cells isolated from 4T1 tumor mice was studied. Flow cytometry experiments were performed by incubating FAM-peptide with the cells suspended in the peritoneal fluid; this i.p. fluid also contained glutathione (FIG. 24). […]
On the technique in general: A flow cytometer gives signals particle by particle.

For assay [5], the target named is T1, recombinant mouse macrophage mannose …. In words: fluorescence anisotropy, in solution, kinetic mode. On the technique in general: Polarisation of emitted light reports the rotation of a fluorescent probe.

Bridge positions count the residues as written; N and C are the ends. Ends that are not written are not given here. FAM = 5(6)-carboxyfluorescein; Ahx = NCCCCCC(=O)O

Sequence of recombinant mouse CD163 (Q2VLH6 39-1045 limits assumed): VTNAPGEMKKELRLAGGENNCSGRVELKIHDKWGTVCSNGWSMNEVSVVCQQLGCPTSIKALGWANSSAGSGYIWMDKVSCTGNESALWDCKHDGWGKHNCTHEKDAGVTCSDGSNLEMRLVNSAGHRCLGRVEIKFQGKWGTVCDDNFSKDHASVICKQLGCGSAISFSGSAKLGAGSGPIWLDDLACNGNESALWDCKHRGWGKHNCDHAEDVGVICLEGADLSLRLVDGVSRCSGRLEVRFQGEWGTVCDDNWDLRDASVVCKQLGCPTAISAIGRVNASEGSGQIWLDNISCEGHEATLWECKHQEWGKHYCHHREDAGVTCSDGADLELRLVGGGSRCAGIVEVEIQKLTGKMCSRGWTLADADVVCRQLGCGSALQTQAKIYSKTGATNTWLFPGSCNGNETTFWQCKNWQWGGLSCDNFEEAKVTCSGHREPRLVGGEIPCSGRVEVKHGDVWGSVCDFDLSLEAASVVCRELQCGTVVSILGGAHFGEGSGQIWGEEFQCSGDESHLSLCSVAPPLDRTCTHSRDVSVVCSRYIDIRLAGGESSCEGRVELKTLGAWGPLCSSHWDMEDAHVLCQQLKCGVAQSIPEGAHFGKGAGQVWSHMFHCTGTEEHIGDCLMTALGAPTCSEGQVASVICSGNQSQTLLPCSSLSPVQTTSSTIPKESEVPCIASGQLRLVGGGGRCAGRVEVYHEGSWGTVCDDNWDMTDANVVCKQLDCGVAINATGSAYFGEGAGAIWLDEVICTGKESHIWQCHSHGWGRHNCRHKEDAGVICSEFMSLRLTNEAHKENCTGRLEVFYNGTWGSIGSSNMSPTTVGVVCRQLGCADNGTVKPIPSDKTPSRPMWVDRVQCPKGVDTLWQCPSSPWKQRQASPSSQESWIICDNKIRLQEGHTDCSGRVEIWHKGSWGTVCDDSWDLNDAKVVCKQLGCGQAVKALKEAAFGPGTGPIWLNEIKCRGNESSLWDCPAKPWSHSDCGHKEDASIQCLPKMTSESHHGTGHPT

Consider “rat anti-CD206 antibody (Bio-Rad, product code MCA2235GA)”, for which, in assay [1], the reduction of FAM-UNO binding turned out to be 25%.

With {FAM-Ahx}-CSPGAK (also called linear CSPGAK) [FAM-CSPGAK], the binding result with recombinant mouse CD163 is given as “no binding (tested: 50 nM FAM peptide, 1 µM protein)”; in assay [2], “binds”.

B1: FAM-UNO (cyclic, disulfide-bridged FAM-labeled CSPGAKVRC) (peptide)
peptide: {FAM-Ahx}-CSPGAKVRC
modifications: disulfide 1-9
notes: Cyclic CX7C peptide from a phage library, used as a synthetic FAM-labeled peptide without reduction; also called FAM-labeled UNO
B1: the binding result in assay [3] is listed as “no binding (tested: 100 nM FAM peptide, 0.4 µM protein)”; in assay [4] it was “binds”.

B2: FAM-CPMTDNE (control peptide) (peptide)
peptide: {FAM-Ahx}-CPMTDNE
notes: Control peptide of the fluorescence anisotropy assay
On to B2, for which the binding result in assay [5] is recorded as “no binding (tested: 50 nM FAM peptide, 1 µM protein)”.

For the origin of these results see US20200268910A1 (SANFORD BURNHAM PREBYS MEDICAL DISCOVERY INSTITUTE, published 2020).
